The series addresses CsrA-His6 (Escherichia coli, UniProt P69913 1-61). The series is described as follows: EMSA; 10 mM Mg2+; apparent KD, cooperative equation; single shift; EMSA: 0.5 nM RNA, 10 mM MgCl2, 100 mM KCl, 32.5 ng yeast RNA, 20 mM DTT, 7.5% glycerol, 4 U SUPERasin, 37 C 30 min (pH not stated); footprint: 2 nM RNA, 10 mM Tris-HCl pH 7.5, 10 mM MgCl2, 100 mM KCl, 40 ng yeast RNA, 7.5% glycerol, 37 C. The settings on record: protein: recombinant; tags: His6 (C-terminal per name); chain copies: 2; label: 5'-32P.

CsrA-His6, sequence (P69913 whole entry): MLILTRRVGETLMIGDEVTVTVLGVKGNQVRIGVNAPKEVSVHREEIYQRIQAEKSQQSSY

B1: dps EMSA transcript (ssRNA)
RNA: GGGUUAAUUACUGGGACAUAACAUCAAGAGGAUAUGAAAUUAUGAGUACCGC
For the molecule B1, the Kd came to 25 nM.

(Values after paper PMC6686035, “Regulation of Iron Storage by CsrA Supports Exponential Growth of Escherichia coli”.)
